Source: patent US6043072A, “Nucleic acids encoding Taxus geranylgeranyl diphosphate synthase, and methods of use” (Washington State University Research Foundation, priority 1998, dated 2000)

B1: Tr^295: 5'-truncated T. canadensis GGPP synthase of SEQ ID NO:2 beginning at nucleotide 295 (F^99), lacking the transit peptide (protein)
chain: FDFNEYMKSKAVAVDAALDKAIPLEYPEKIHESMRYSLLAGGKRVRPALCIAACELVGGSQDLAMPTACAMEMIHTMSLIHDDLPCMDNDDFRRGKPTNHKVFGEDTAVLAGDALLSFAFEHIAVATSKTVPSDRTLRVISELGKTIGSQGLVGGQVVDITSEGDANVDLKTLEWIHIHKTAVLLECSVVSGGILGGATEDEIARIRRYARCVGLLFQVVDDILDVTKSSEELGKTAGKDLLTDKATYPKLMGLEKAKEFAAELATRAKEELSSFDQIKAAPLLGLADYIAFRQN
B2: full-length: full-length T. canadensis GGPP synthase preprotein (SEQ ID NO:2) encoded by SEQ ID NO:1 (protein)
chain: MAYTAMAAGTQSLQLRTVASYQECNSMRSCFKLTPFKSFHGVNFNVPSLGAANCEIMGHLKLGSLPYKQCSVSSKSTKTMAQLVDLAETEKAEGKDIEFDFNEYMKSKAVAVDAALDKAIPLEYPEKIHESMRYSLLAGGKRVRPALCIAACELVGGSQDLAMPTACAMEMIHTMSLIHDDLPCMDNDDFRRGKPTNHKVFGEDTAVLAGDALLSFAFEHIAVATSKTVPSDRTLRVISELGKTIGSQGLVGGQVVDITSEGDANVDLKTLEWIHIHKTAVLLECSVVSGGILGGATEDEIARIRRYARCVGLLFQVVDDILDVTKSSEELGKTAGKDLLTDKATYPKLMGLEKAKEFAAELATRAKEELSSFDQIKAAPLLGLADYIAFRQN

Key:
yeast strain (INVSc1) = assay: Growth/toxicity of constructs in yeast under galactose induction; assay type: cell-based, S. cerevisiae; details: for growth of INVSc1 transformants on SLI medium: 30° C., 3 d, galactose (induced); for toxicity of the expressed recombinant GGPP synthase gene to host cells: inducing conditions, galactose as carbon source
Protocol: To test the expression of GGPP synthase on galactose as carbon source, each construct was transformed into a yeast strain (INVSc1) that metabolizes this sugar efficiently.
(§1) The toxicity of the constitutively expressed, recombinant GGPP synthase gene in yeast and in E. coli parallels the in vitro activity of the enzyme expressed in the truncation series. […] This toxicity is not observed when the corresponding transformed yeast are grown on glucose or glycerol (uninduced condition), but only when the gene is actively expressed by growth under inducing conditions with galactose as the carbon source. The overexpression of this gene to produce a functional GGPP synthase probably interferes with metabolism by depleting intracellular pools of FPP, via diversion to GGPP, and thus limiting sterol biosynthesis. […] The vector used in these E. coli transformation experiments was pYPGE15, the plasmid derived from λPG15.

E. coli = assay: Expression under a strong constitutive promoter in E. coli (vector pYPGE15); assay type: cell-based
Protocol: as §1

[1] = test system: ANY119, an S. cerevisiae mutant; assay: Complementation assay in yeast bet2-1 mutant; assay type: cell-based; details: 37° C.; SGI (3 d) and N3 (5 d)
Protocol: The pYeDP60 constructs were transformed into the S. cerevisiae mutant ANY119 using the lithium acetate procedure (Treco, D. (1989) in Current Protocols in Molecular Biology (Ausubel, F. M., Brent, R., Kingston, R. E., Moore, D. D., Seidman, J. G., Smith, J. A. and White, T. J., Eds.), pp. 13.7.1-13.7.2, John Wiley and Sons, New York), and the transformed yeast were then plated on a synthetic medium containing glucose as the sole carbon source (but lacking uracil) and grown for 4 d at 25° C. Isolated colonies, corresponding to each construct, were then replica streaked onto SGI, N3 and SLI media and grown for 3, 5 or 7 d, respectively, at 25° C or 37° C.
SGI and SLI synthetic media contain, respectively, 20 g/liter glucose (G) or 20 g/liter galactose (L) in 1 g/liter bactocasamino acids (Difco), 6.7 g/liter yeast nitrogen base without amino acid (Difco), and 40 mg/liter DL-tryptophan.
The three pYeDP60/T. canadensis GGPP synthase constructs were introduced into and expressed in ANY119, an S. cerevisiae mutant that is defective for the β-subunit of type II geranylgeranyltransferase. […]

[2] = Prenyltransferase assay of extracts of yeast expressing the GGPP synthase constructs, with product analysis by radio-TLC; assay type: biochemical, Taxus canadensis
Protocol: The standard assay for prenyltransferase activities was performed with 21 mg protein in a total volume of 100 ml of the extraction/assay buffer disclosed in Example 3. […] The reaction was quenched by the addition of 300 mil of methanol:conc. HCl (4:1, v/v), and the allylic diphosphate products were solvolyzed (50, 51) upon further incubation at 42° C. for 20 min. The resulting solvolysis products were extracted twice with 1 ml pentane, and were either analyzed by liquid scintillation counting (in toluene:ethanol (7:3, v/v) containing 0.4% Omnifluor (DuPont NEN); ^14 C counting efficiency=96.0%) or concentrated on ice under a gentle stream of Ar to […] for further analysis.
For radio-TLC analysis, samples were mixed with 10 mg each of geranylgeraniol (all trans), geranyllinalool (mixed geometric isomers), farnesol and geraniol and spotted on Whatman MKC 18F reversed phase plates that were developed with acetonitrile:acetone:water (15:4:1, v/v/v) and visualized with I2 vapor. Bands corresponding to the standards were scraped into scintillation vials for counting. For radio-GC analysis, the above pentane extract was diluted with 200 ml of an 8% ethereal solution of the internal standards before concentration on ice. Product identity was confirmed by radio-GC (Satterwhite, D. M. and Croteau, R. (1988) J. Chromatogr., 452:61-73) coincidence with the authentic standard on a 12 ft x 0.125 in. polydimethylsiloxane column (15% SE-30 on 80/100-mesh Chromasorb WHP; (Alltech, Inc., Nicholasville, Ky.), with He as carrier and temperature programming from 150° C. (1 min hold) to 240° C. (20 min hold) at 8° C./min.

| Molecule | growth of INVSc1 transformants on SLI medium (yeast strain (INVSc1)) | toxicity of the expressed recombinant GGPP synthase gene to host cells (yeast strain (INVSc1)) | growth of E. coli expressing the clone (E. coli) | growth at restrictive temperature (rescue of bet2-1 mutant) [1] | total radioactivity of solvolysis products coinciding with geranylgeraniol and geranyllinalool standards ([2]; reversed phase TLC, [4-^14 C]IPP plus FPP as substrates) [%] | prenyltransferase activity of enzyme preparation ([2]; yeast extracts, [4-^14 C]IPP and FPP) | activity relative to the truncated form expressed from Tr^295 ([2]; compared on a protein basis, yeast extracts) [%] |
| --- | --- | --- | --- | --- | --- | --- | --- |
| B1 | did not grow at all | extremely toxic | the cells will not grow | showed growth | 97 | highly active |  |
| B2 | scanty growth | noticeable reduction in growth | the cells will not grow | showed growth |  |  | 12 |
